Test results published in patent US20120214173A1, “Methods of Identifying Modulators of an Ehd Polypeptide” (priority 2007, published 2012).
Numbering of substitutions follows the chain as printed. Names and notes keep the numbering of the source. “Also recorded” adds a separate entry of the source. Where two headings read alike, the source gives them in different places.

Legend:
Q8BH64 [1] = system: Q8BH64
[2] = Negative stain EM of liposome tubulation/oligomerisation; details: 2.5 μM protein, PS liposomes
Protocol: (§1) Amino acid numbering corresponds to mouse EHD2. b, EHD2 binds to adenine nucleotides, as determined by ITC. For clarity, ΔΔH=ΔHn−ΔH1 is plotted. […] Images were acquired close to the basal cell surface. f, Nucleotide hydrolysis was measured by HPLC in the absence (empty symbols) or presence of Folch liposomes (filled symbols). Data represent mean and standard deviation for two (intrinisic reactions) or three (stimulated reactions) independent experiments.
EHD2 was incubated with the indicated liposomes in the presence and absence of nucleotides and analysed by EM as described in Methods. a, EHD2 deformed PS liposomes into tubular networks, here in the presence of ATP-γ-S. b, Enlarged views of the indicated area in a. Note the presence of regularly spaced EHD2 rings (some are indicated with arrows). This even spacing may be due to the curvature stress generated by an EHD2 ring along the axis of the lipid tubule which might disfavour binding of the next ring in the direct vicinity (see below). c, Some of the lipid tubules (especially at higher protein concentration) were tightly packed with EHD2 oligomeric rings. d,e In the presence of ADP and in the absence of nucleotide (f,g), EHD2 also tubulated PS liposomes and formed ring-like structures around the tubules. e,g are enlarged views of the indicated areas in d and f, respectively.
(§2) Reactions were started by the addition of the protein to the final reaction mix and nucleotide hydrolysis was followed using standard HPLC measurement^27. Initial rates were determined by applying a linear fit to data points up to 40% nucleotide hydrolysis. For electron microscopic studies, 2.5 μM EHD2 in 20 mM HEPES (pH 7.5), 150 mM NaCl, 1 mM MgCl2 was incubated for 15 min at 25° C. in the presence of 1 mM nucleotide and 0.05 mg/ml (final concentration) of the indicated liposomes. Samples were spotted on carbon-coated copper grids (Canemco and Marivac) and negatively stained with 2% uranyl acetate.
Nucleotide-independence of liposome tubulation in vitro is also observed for dynamin^16. No noticeable tubule fission or alteration in tubule diameter was found for EHD2 in the presence of ATP. […] Folch liposomes were also tabulated by EHD2. However, with synthetic liposomes containing only 2.5% PIP2 and in the absence of PS, the amount of EHD binding was reduced, and in this less favourable binding condition we only observed tubulation in the presence of ATP-γ-S and ADP but not in the absence of nucleotides (FIG. 7).

EHD2 = biological target: T1, EHD2 (Mus musculus, UniProt Q8BH64); assay: Multiple turnover ATPase assay (nucleotide hydrolysis by HPLC) with or without Folch liposomes; type: biochemical; details: for kobs stimulated ATPase reaction: presence of 1 mg/ml Folch (or PS) liposomes; for membrane-stimulated ATPase activity (in words): presence of Folch liposomes
T1 construct: Mouse EHD2 full-length protein and all mutants were expressed as N-terminal His-fusions followed by a PreScission cleavage site; His (N, cleaved yes); made in house; host or cells: Escherichia coli BL21 DE3 Rosetta
T1 sequence (Q8BH64 1-543): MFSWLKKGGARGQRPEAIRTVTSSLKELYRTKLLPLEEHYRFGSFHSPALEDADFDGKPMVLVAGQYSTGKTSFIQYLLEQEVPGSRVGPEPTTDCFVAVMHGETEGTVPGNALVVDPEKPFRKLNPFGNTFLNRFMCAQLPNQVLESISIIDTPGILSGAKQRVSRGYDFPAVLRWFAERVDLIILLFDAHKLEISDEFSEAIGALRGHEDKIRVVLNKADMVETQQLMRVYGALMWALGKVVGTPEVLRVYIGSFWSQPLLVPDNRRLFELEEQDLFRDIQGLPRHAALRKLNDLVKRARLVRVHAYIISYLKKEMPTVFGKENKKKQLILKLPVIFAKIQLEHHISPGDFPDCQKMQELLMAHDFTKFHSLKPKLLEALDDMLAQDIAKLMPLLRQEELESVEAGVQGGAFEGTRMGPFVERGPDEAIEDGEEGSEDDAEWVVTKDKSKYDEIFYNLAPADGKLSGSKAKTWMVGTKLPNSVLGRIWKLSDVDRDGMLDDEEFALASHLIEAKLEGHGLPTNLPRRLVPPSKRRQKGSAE
Protocol: as §1
(§3) ITC measurements were performed at 10° C. in 20 mM HEPES (pH 7.5), 300 mM NaCl, 2 mM MgCl2. Liposome binding assays were performed as described previously (www.endocytosis.org). Multiple turnover ATPase assays were performed in 20 mM HEPES (pH 7.5), 135 mM NaCl, 15 mM KCl, 1 mM MgCl2 at 30° C. with 10 μM EHD2 (or mutants) as enzyme and 100 μM ATP as substrate, in the absence or presence of 1 mg/ml Folch liposomes (Sigma-Aldrich).
as §2
We next monitored the effect of membrane-binding on the ATPase activity of. EHD2 under multiple-turnover conditions (10-fold excess of ATP over EHD2), in the presence and absence of Folch liposoines (FIG. 1f). The intrinsic/background ATPase activity is extremely slow (kobs=0.7 h^−1) but is stimulated 8-fold in the presence of Folch or PS liposomes (kobs=5.6 h^−1).

HeLa cells = assay: Over-expression of EGFP-tagged EHD2 and mutants in HeLa cells (confocal / live imaging); type: cell-based; details: for distribution of EGFP-tagged protein over-expressed in HeLa cells: 24 h after transfection, fixed; for dynamics of tubules and puncta by EPI-fluorescence live imaging: over-expressed 24 h, imaged approximately 30 min
Protocol: as §1
(§4) Nucleotide hydrolysis was measured as described in FIG. 1f. In vitro tubulation activity of PS liposomes was analysed as described in FIG. 1d. f, EGFP-tagged mutants were over-expressed in HeLa cells. […] For each construct, three independent experiments with ≈50 cells/experiments were analysed.
Ultracentrifugation. Sedimentation velocity experiments were performed in a Beckman Optima XLA ultracentrifuge, using an An-60Ti rotor. Centrifugation was at 50,000 rev×min and 5° C. at an EHD2 concentration of 15 μM, with scans as fast as possible (˜1.5 min intervals). The data were analysed using DCDT+ v.2^44,45, with the partial specific volume for the protein (from the amino acid composition) and solvent density and viscosity calculated using Sednterp^46. Selected scans (at equal, ˜15 min intervals), and of g(s20,w) (the amount of material sedimenting between s20,w and (s20,w+δs)) and also the residuals for fitting the data with DCDT+, were plotted with the program profit v.5.6.7 (Quantum soft, Switzerland). Cell biology. N-terminal EGFP-tagged EHD2 and all mutants were over-expressed in HeLa cells from the pEGFP-C3 vector (Clontech). HeLa cells were grown as per ECACC guidelines with 10% fetal bovine serum and transfected using Genejuice (Novagen) for transient protein expression. 24 h after transfection, cells were fixed for 10 min at 37° C. in 3% paraformaldehyde and mounted. All confocal images were taken sequentially using a BioRad Radiance system and LaserSharp software (Biorad). For real-time microscopy, transfected cells on glass-bottom Petri dishes (WillCo Wells BV, Amsterdam) were washed with 25 mM HEPES (pH 7.5), 125 mM NaCl, 5 mM KCl, 10 mM D-glucose, 1 mM MgCl2, 2 mM CaCl), and epifluorescence images were taken using an Olympus IX70 microscope (Southhall, UK) and Argon laser (Melles Griot, Carlsbad, Calif.) with a Princeton instruments (Trenton, N.J.) cooled I-PentaMAX camera with MetaMorph software (Universal imaging).
EHD2 wild-type was over-expressed in HeLa cells for 24 h and imaged by EPI-fluorescence for approximately 30 min.
EHD2 T94A was over-expressed in HeLa cells for 24 h and imaged by EPI-fluorescence for approximately 30 min. […] EHD2 I157Q was over-expressed in HeLa cells for 24 h and imaged by EPI-fluorescence for approximately 30 min.

[3] = Liposome co-sedimentation (membrane binding) assay; details: Folch / PS liposomes
Protocol: as §1, §4, §3
Mouse full-length EHD2 was expressed in bacteria and purified to homogeneity (FIG. 5). The purified protein was nucleotide-free as judged by HPLC analysis. […] It was previously reported that EHDs—despite having a predicted G-domain—bind to adenine nucleotides^15. […] We still refer to this domain as a G-domain because the sequence and fold (see below) are clearly similar to other G-domains. […] Using synthetic liposomes containing various different phosphatidyl-inositols (PI) (FIG. 1c) we observed best binding to liposomes containing PI(4,5)bisphosphate (PIP2).

Q8BH64 [4] = biological target: Q8BH64; remark: listed apart in the source
[5] = biological target: T2, isolated EH-domain of EHD2 (mouse, UniProt Q8BH64 443-543, limits assumed); assay: ITC at 10 °C, 100 mM HEPES pH 7.5, 50 mM NaCl, 200 µM CaCl2; peptide against the EH-domain of EHD2
T2 construct: domain: EH-domain; ITC buffer contained 200 µM CaCl2
T2 sequence (looked up): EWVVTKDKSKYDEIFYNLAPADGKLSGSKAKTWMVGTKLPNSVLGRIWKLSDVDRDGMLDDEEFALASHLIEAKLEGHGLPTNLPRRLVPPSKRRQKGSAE

[6] = biological target: T2, isolated EH-domain of EHD2; assay: ITC at 10 °C, peptide against the EH-domain of EHD2

EHD2 deletion mutant of the EH-domain (ΔEH)
membrane-stimulated ATPase activity (Q8BH64 [1]): did not show any membrane-stimulated ATPase activity

EHD2: mouse full-length EHD2 expressed in bacteria; EGFP-tagged in HeLa cells
liposome tubulation / oligomerisation by EM [2]: deforms PS liposomes in a nucleotide-independent manner into 20 nm-diameter tubules | kobs intrinsic/background ATPase activity (EHD2; 10 μM protein, 100 μM ATP, 30° C., absence of liposomes): 0.7 h⁻¹ | kobs stimulated ATPase reaction (EHD2; 10 μM protein, 100 μM ATP, 30° C.): 5.6 h⁻¹ | kobs stimulated ATPase reaction (EHD2; 10 μM protein, 100 μM ATP, 30° C., listed as wt): 5.4 h⁻¹ | stimulation of intrinsic ATP reaction by liposomes (EHD2; Folch or PS liposomes versus no liposomes): 8 fold | stimulated nucleotide hydrolysis slower than dynamin (EHD2; stimulated condition, versus dynamin GTP hydrolysis): 600 fold | distribution of EGFP-tagged protein over-expressed in HeLa cells (HeLa cells): localised to puncta and tubular networks close to the cell surface; also recorded: marked punctate and tubular structures | dynamics of tubules and puncta by EPI-fluorescence live imaging (HeLa cells): Some of the tubules and puncta are dynamic | binding to liposomes (co-sedimentation) [3]: efficient binding

B1: EHD2 double mutant of the two side-site xPF motifs (F122A/F128A) (protein)
chain: T1 sequence (Q8BH64 1-543) with F122A, F128A
liposome tubulation / oligomerisation by EM [2]: did not find any regular oligomers on liposomes | membrane-stimulated ATPase activity (in words) (EHD2): did not show any membrane-stimulated ATPase activity | membrane-stimulated ATPase activity (in words) (EHD2; listed as mutation of the side site xPFs motif): completely prevented the membrane-stimulated ATPase reaction | membrane-stimulated ATPase activity (Q8BH64 [4]): did not show any membrane-stimulated ATPase activity

B2: I157Q: EHD2 mutant with re-introduced catalytic glutamine in the active site (protein, UniProt Q8BH64 1-543, looked up, variant I157Q)
EH domain-containing protein 2: T1 sequence (Q8BH64 1-543) with I157Q
liposome tubulation / oligomerisation by EM [2]: tubulated liposomes | intrinsic/basal ATPase activity (in words) (EHD2; absence of membranes): hydrolysed ATP faster than wild-type | membrane-stimulated ATPase activity (in words) (EHD2): not further stimulated by membranes | distribution of EGFP-tagged protein over-expressed in HeLa cells (HeLa cells): exclusively punctate staining; also recorded: labelled only very short tubules and puncta | dynamics of tubules and puncta by EPI-fluorescence live imaging (HeLa cells): No tubules can be found and the puncta are mostly motile

B3: peptide 124-KLNPFGNT from EHD2 (peptide)
peptide: KLNPFGNT
notes: also called side site NPF peptide
Kd [5]: 130 µM

B4: peptide 118-PEKPFRKL from EHD2 (peptide)
peptide: PEKPFRKL
notes: also called side site KPF peptide
binding result [6]: no binding

B5: peptide 418-RMGPFVER from EHD2 (peptide)
peptide: RMGPFVER
notes: also called top site GPF peptide
binding result [6]: no binding
